Earlier results in patent US10765706B2, “Method of stem cell delivery into the brain during chronic disease using blood brain barrier permeabilizers” (University of South Florida, priority 2015, dated 2020).

Test system: stroke patients
Details: acute stroke patients

B1: t-PA: thrombolytic agent, tissue plasminogen activator (protein, UniProt P00750 36-562, looked up)
Tissue-type plasminogen …: SYQVICRDEKTQMIYQQHQSWLRPVLRSNRVEYCWCNSGRAQCHSVPVKSCSEPRCFNGGTCQQALYFSDFVCQCPEGFAGKCCEIDTRATCYEDQGISYRGTWSTAESGAECTNWNSSALAQKPYSGRRPDAIRLGLGNHNYCRNPDRDSKPWCYVFKAGKYSSEFCSTPACSEGNSDCYFGNGSAYRGTHSLTESGASCLPWNSMILIGKVYTAQNPSAQALGLGKHNYCRNPDGDAKPWCHVLKNRRLTWEYCDVPSCSTCGLRQYSQPQFRIKGGLFADIASHPWQAAIFAKHRRSPGERFLCGGILISSCWILSAAHCFQERFPPHHLTVILGRTYRVVPGEEEQKFEVEKYIVHKEFDDDTYDNDIALLQLKSDSSRCAQESSVVRTVCLPPADLQLPDWTECELSGYGKHEALSPFYSERLKEAHVRLYPSSRCTSQHLLNRTVTDNMLCAGDTRSGGPQANLHDACQGDSGGPLVCLNDGRMTLVGIISWGLGCGQKDVPGVYTKVTNYLDWIRDNMRP
For B1, which “fraction of patients receiving the therapy with enhanced recovery” value is on record?
The value was “⅓”.
